{"source": "paper PMC4014808", "key": {"L3MBTL2": {"system": "L3MBTL2", "assay": "ELISA", "conditions": "ELISA: 20 mM Tris-HCl pH 7.5, 150 mM NaCl, 20 mM KCl, 0.02% IGEPAL, 1 mM DTT, 1 h at room temperature, 50 uL of 50 nM biotinylated DNA per well"}, "MPG": {"system": "MPG", "assay": "ELISA", "conditions": "all C outside primers replaced by 5-formylcytosine (dfCTP in PCR); ELISA: 20 mM Tris-HCl pH 7.5, 150 mM NaCl, 20 mM KCl, 0.02% IGEPAL, 1 mM DTT, 1 h at room temperature; 50 uL of 50 nM biotinylated DNA per well"}}}
{"substance": "Fgf15 promoter probe, 5fC", "values": [{"measurement": "Kd", "setting": "L3MBTL2; all C outside primers replaced by 5-formylcytosine (dfCTP in PCR)", "result": 0.0371, "unit": "µM"}, {"measurement": "Kd", "setting": "MPG", "result": 0.0134, "unit": "µM"}]}
{"substance": "Fgf15 promoter probe, C", "values": [{"measurement": "Kd", "setting": "L3MBTL2", "result": 0.0812, "unit": "µM"}]}
